# Measurements as given in patent US20170281720A1 (published 2017).
# Bridges are numbered along the chain shown (N, C = ends). [ ]: non-standard residue; d: D form. pY = N[C@@H](Cc1ccc(OP(=O)(O)O)cc1)C(=O)O; NMeW = CN[C@@H](Cc1c[nH]c2ccccc12)C(=O)O; R8 = C=CCCCCCC[C@@](C)(N)C(=O)O; Cba = N[C@@H](CC1CCC1)C(=O)O; hLeu = CC(C)CC[C@H](N)C(=O)O; S5 = C=CCCC[C@](C)(N)C(=O)O; Decac = not defined here; Napac = not defined here; Nle = CCCC[C@H](N)C(=O)O; F4g = not defined here
# How the values were obtained:
# MDM2 (In-house, 41 kD) [1] = molecular target: T1, MDM2 (In-house, 41 kD) (UniProt Q00987 1-125, limits assumed); test: competitive fluorescence polarization on MDM2 against FAM-labeled linear peptide; grade, scale in paragraph 462
# T1 construct: Only 'In-house, 41 kD' is said of the protein used in the fluorescence polarization assays; also called HDM2
# T1 sequence (Q00987 1-125 limits assumed): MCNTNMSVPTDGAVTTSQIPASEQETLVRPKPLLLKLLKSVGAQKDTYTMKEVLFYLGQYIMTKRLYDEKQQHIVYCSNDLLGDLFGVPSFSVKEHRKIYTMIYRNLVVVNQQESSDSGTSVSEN
# MDMX (In-house, 40 kD) [2] = molecular target: T2, MDMX (In-house, 40 kD) (UniProt O15151 1-120, limits assumed); test: competitive fluorescence polarization on MDMX against FAM-labeled linear peptide; grade, scale in paragraph 462
# T2 construct: Only 'In-house, 40 kD' is said of the protein used in the fluorescence polarization assays; also called MDM4
# T2 sequence (looked up): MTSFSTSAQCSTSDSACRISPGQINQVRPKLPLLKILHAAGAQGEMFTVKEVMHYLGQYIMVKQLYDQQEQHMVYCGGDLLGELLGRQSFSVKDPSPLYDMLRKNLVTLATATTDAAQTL
# MDMX (In-house, 40 kD) [3] = molecular target: T3, MDMX (In-house, 40 kD) (UniProt O15151 1-120, limits assumed); test: FP competition on MDMX vs FAM-labeled linear peptide; graded Ki, + = >1000 nM
# T3 construct: Construct not described beyond 'In-house, 40 kD'; also called MDM4
# T3 sequence (looked up): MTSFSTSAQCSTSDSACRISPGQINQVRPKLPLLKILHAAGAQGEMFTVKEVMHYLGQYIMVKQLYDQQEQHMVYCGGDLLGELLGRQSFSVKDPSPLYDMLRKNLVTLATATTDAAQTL
# MDMX (In-house, 40 kD) [4] = molecular target: T3, MDMX (In-house, 40 kD); test: FP competition on MDMX vs FAM-labeled linear peptide; graded IC50, + = >1000 nM
# MDMX (In-house, 40 kD) [5] = molecular target: T4, MDMX (In-house, 40 kD) (UniProt O15151); test: competitive fluorescence polarization on MDMX against FAM-labeled linear peptide; grade, scale in paragraph 462
# T4 sequence (looked up): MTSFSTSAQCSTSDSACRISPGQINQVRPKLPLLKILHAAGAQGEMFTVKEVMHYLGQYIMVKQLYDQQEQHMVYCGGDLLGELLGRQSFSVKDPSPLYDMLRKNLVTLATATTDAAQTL
# MDM2 (In-house, 41 kD) [6] = molecular target: MDM2 (In-house, 41 kD) (UniProt Q00987); test: competitive fluorescence polarization on MDM2 against FAM-labeled linear peptide; grade, scale in paragraph 462
# Chain of MDM2 (In-house, 41 kD) (UniProt Q00987) (Q00987 1-125 limits assumed): as the sequence (Q00987 1-125 limits assumed) above
# MDMX (In-house, 40 kD) [7] = molecular target: T5, MDMX (In-house, 40 kD) (UniProt O15151 1-120, limits assumed); test: competitive FP vs FAM labeled linear peptide; column Ki (MDMX); + = >1000 nM by the table's scale
# T5 construct: Only 'MDMX (In-house, 40 kD)' is said of the protein in the FP assays; also called MDM4
# T5 sequence (looked up): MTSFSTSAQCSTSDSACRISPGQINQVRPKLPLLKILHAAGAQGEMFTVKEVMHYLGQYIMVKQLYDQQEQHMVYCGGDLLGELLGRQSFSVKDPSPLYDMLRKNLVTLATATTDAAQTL
# MDMX (In-house, 40 kD) [8] = molecular target: T5, MDMX (In-house, 40 kD); test: competitive FP vs FAM labeled linear peptide; column IC50 (MDMX); + = >1000 nM by the table's scale
# MDMX (In-house, 40 kD) [9] = molecular target: T6, MDMX (In-house, 40 kD) (UniProt O15151 1-120, limits assumed); test: IC50 (MDMX) grade; competitive FP vs FAM-labeled linear peptide; + = >1000 nM
# T6 construct: The construct used is unknown; also called MDM4
# T6 sequence (looked up): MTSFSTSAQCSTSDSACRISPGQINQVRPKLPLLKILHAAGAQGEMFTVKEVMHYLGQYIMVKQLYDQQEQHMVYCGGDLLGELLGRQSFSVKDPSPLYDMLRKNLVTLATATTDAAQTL
# MDMX (In-house, 40 kD) [10] = molecular target: T6, MDMX (In-house, 40 kD); test: Ki (MDMX) grade; competitive FP vs FAM-labeled linear peptide; + = >1000 nM
binder,measurement,setting,value
"Ac-LTF[R8]EYWAHL[S5]AAAAA[dA]-NH2 (staple 4-11, stapled peptidomimetic macrocycle) [SP613, Ac-LTF$r8EYWAHL$AAAAAa-NH2]",Ki,"MDM2 (In-house, 41 kD) [1]",≤ 0.01 µM
"Ac-LTF[R8]EYWASL[S5]AAAAA[dA]-NH2 (staple 4-11, stapled peptidomimetic macrocycle) [SP610, Ac-LTF$r8EYWASL$AAAAAa-NH2]",Ki,"MDM2 (In-house, 41 kD) [1]",≤ 0.01 µM
"Ac-LTF[R8]QYWAQL[S5]AAAAA[dA]-NH2 (staple 4-11, stapled peptidomimetic macrocycle) [SP600, Ac-LTF$r8QYWAQL$AAAAAa-NH2]",Ki,"MDM2 (In-house, 41 kD) [1]",≤ 0.01 µM
same,Ki,"MDMX (In-house, 40 kD) [2]",≤ 0.01 µM
"Ac-LTF[R8][F4g]YWAQL[S5]AAAAA[dA]-NH2 (staple 4-11; not fully specified; reading uncertain, stapled peptidomimetic macrocycle) [SP603, Ac-LTF$r8F4gYWAQL$AAAAAa-NH2]",Ki,"MDM2 (In-house, 41 kD) [1]",≤ 0.01 µM
same,Ki,"MDMX (In-house, 40 kD) [2]",≤ 0.01 µM
"Ac-LTF[R8]EYWALL[S5]AAAAA[dA]-NH2 (staple 4-11, stapled peptidomimetic macrocycle) [SP608, Ac-LTF$r8EYWALL$AAAAAa-NH2]",Ki,"MDM2 (In-house, 41 kD) [1]",≤ 0.01 µM
"Ac-LTA[R8]EYWAQ[Cba][S5]SAA-NH2 (staple 4-11) [SP252, Ac-LTA$r8EYWAQCba$SAA-NH2]",Ki,"MDMX (In-house, 40 kD) [3]",> 1 µM
same,IC50,"MDMX (In-house, 40 kD) [4]",> 1 µM
"LTFAEYWAXLAAAAAAA (not fully specified; N-terminal acetyl; $r8 (alpha-Me R8-octenyl-alanine) at 4 crosslinked to $ (alpha-Me S5-pentenyl-alanine) at 11; Aib (2-aminoisobutyric acid) at 9; D-alanine at 17; C-terminal amide, stapled peptidomimetic macrocycle) [SP609, Ac-LTF$r8EYWAAibL$AAAAAa-NH2]",Ki,"MDM2 (In-house, 41 kD) [1]",≤ 0.01 µM
"Ac-LTF[R8]E[pY]WAQL[S5]AAAAA[dA]-NH2 (staple 4-11) [SP615, Ac-LTF$r8EpYWAQL$AAAAAa-NH2]",Ki,"MDMX (In-house, 40 kD) [5]",< 0.01 µM
same,Ki,"MDM2 (In-house, 41 kD) [6]",< 0.01 µM
"Ac-LTF[R8]AY[NMeW]AQL[S5]AA[Nle]A-NH2 (staple 4-11; not fully specified, Stapled peptidomimetic macrocycle, single isomer iso2; also called Ac-LTF$r8AYNmWAQL$AANleA-NH2) [SP386]",Ki,"MDMX (In-house, 40 kD) [7]",> 1 µM
same,IC50,"MDMX (In-house, 40 kD) [8]",> 1 µM
"Ac-LTF[R8]AYWAQ[hLeu][S5]AA[Nle]AA-NH2 (staple 4-11, Peptidomimetic macrocycle (stapled p53-derived peptide)) [SP323]",IC50,"MDMX (In-house, 40 kD) [9]",> 1 µM
"LTFAEYWXQAASAA (not fully specified; N-terminal acetyl; $r8 (alpha-Me R8-octenyl-alanine) at 4 crosslinked to $ (alpha-Me S5-pentenyl-alanine) at 11; Cou7 at 8 (structure given only as a drawing); Cba (cyclobutyl alanine) at 10; C-terminal amide, stapled peptidomimetic macrocycle) [SP433, Ac-LTF$r8EYWCou7QCba$SAA-NH2]",Ki,"MDM2 (In-house, 41 kD) [1]",≤ 0.01 µM
"Napac-LTF[R8]EYWAQ[hLeu][S5]SAA-NH2 (staple 4-11; reading uncertain, Peptidomimetic macrocycle (stapled p53-derived peptide)) [SP281]",IC50,"MDMX (In-house, 40 kD) [9]",> 1 µM
"Ac-LTF[R8]HYWAQ[Cba][S5]SAA-NH2 (staple 4-11; also: single isomer iso2, stapled peptidomimetic macrocycle, isomer iso2) [SP712, Ac-LTF$r8HYWAQCba$SAA-NH2 (iso2)]",Ki,"MDM2 (In-house, 41 kD) [1]",≤ 0.01 µM
same,Ki,"MDMX (In-house, 40 kD) [2]",≤ 0.01 µM
"Ac-LTF[R8]SYWAQ[Cba][S5]SAA-NH2 (staple 4-11; also: single isomer iso2, stapled peptidomimetic macrocycle, isomer iso2) [SP713, Ac-LTF$r8SYWAQCba$SAA-NH2 (iso2)]",Ki,"MDM2 (In-house, 41 kD) [1]",≤ 0.01 µM
same,Ki,"MDMX (In-house, 40 kD) [2]",≤ 0.01 µM
"Decac-LTF[R8]EYWAQ[hLeu][S5]SAA-NH2 (staple 4-11; reading uncertain, Peptidomimetic macrocycle (stapled p53-derived peptide)) [SP282]",IC50,"MDMX (In-house, 40 kD) [9]",> 1 µM
same,Ki,"MDMX (In-house, 40 kD) [10]",> 1 µM
